Target: CSN3 (human (endogenous in HEK293, HEK293T …, UniProt Q9UNS2 1-423))
Assay: co-IP

Sequence of CSN3 (human (Q9UNS2 whole entry): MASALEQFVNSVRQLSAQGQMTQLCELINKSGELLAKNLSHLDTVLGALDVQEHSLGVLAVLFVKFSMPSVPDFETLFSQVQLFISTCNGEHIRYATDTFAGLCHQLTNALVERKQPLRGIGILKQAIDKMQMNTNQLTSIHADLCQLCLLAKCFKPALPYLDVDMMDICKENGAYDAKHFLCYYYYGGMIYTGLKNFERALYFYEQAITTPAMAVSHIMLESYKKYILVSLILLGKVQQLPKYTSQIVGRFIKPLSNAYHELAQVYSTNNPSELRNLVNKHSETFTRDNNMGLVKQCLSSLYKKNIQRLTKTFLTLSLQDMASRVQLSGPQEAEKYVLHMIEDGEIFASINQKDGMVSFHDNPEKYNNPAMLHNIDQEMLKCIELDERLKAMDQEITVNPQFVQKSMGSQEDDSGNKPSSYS

B1: CSNAP (CSN Acidic Protein) (natural protein)
chain: MKPAVDEMFPEGAGPYVDLDEAGGSTGLLMDLAANEKAVHADFFNDFEDLFDDDDIQ
binding result: binds

Source: paper PMC5724754 (Cell reports, 2015)
